# Results taken from US20210292396A1.
# Experiments:
# Experiment in all cases: cell-based or functional assay
# [1] = target: Env of HIV isolate 16845-2.22 (clade C) (HIV)
# [2] = target: Env of HIV isolate 25711-2.4 (clade C) (HIV)
# [3] = target: Env of HIV isolate 269-12 (clade AG) (HIV)
# [4] = target: Env of HIV isolate 286.36 (clade C) (HIV)
# [5] = target: Env of HIV isolate 288.38 (clade C) (HIV)
# [6] = target: Env of HIV isolate 3301.v1.c24 (clade AC) (HIV)
# [7] = target: Env of HIV isolate 3365.v2.c20 (clade A) (HIV)
# [8] = target: Env of HIV isolate 3873.v1.c24 (clade C) (HIV)
# [9] = target: Env of HIV isolate 6095.v1.c10 (clade ACD) (HIV)
# [10] = target: Env of HIV isolate 6785.v5.c14 (clade C) (HIV)
# [11] = target: Env of HIV isolate 928-28 (clade AG) (HIV)
# [12] = target: Env of HIV isolate AC10.29 (clade B) (HIV)
# [13] = target: Env of HIV isolate BB201.B42 (clade A) (HIV)
# [14] = target: Env of HIV isolate BI369.9A (clade A) (HIV)
# [15] = target: Env of HIV isolate C2101.c1 (clade AE) (HIV)
# [16] = target: Env of HIV isolate CH038.12 (clade BC) (HIV)
# [17] = target: Env of HIV isolate CM244.ec1 (clade AE) (HIV)
# [18] = target: Env of HIV isolate CNE10 (clade B) (HIV)
# [19] = target: Env of HIV isolate CNE12 (clade B) (HIV)
# [20] = target: Env of HIV isolate CNE3 (clade AE) (HIV)
# [21] = target: Env of HIV isolate CNE56 (clade AE) (HIV)
# [22] = target: Env of HIV isolate Ce1176.A3 (clade C) (HIV)
# [23] = target: Env of HIV isolate DU123.06 (clade C) (HIV)
# [24] = target: Env of HIV isolate DU151.02 (clade C) (HIV)
# [25] = target: Env of HIV isolate NKU3006.ec1 (clade D) (HIV)
# [26] = target: Env of HIV isolate P1981.C5.3 (clade G) (HIV)
# [27] = target: Env of HIV isolate T250-4 (clade AG) (HIV)
# [28] = target: Env of HIV isolate T253-11 (clade AG) (HIV)
# [29] = target: Env of HIV isolate T255-34 (clade AG) (HIV)
# [30] = target: Env of HIV isolate T266-60 (clade AG) (HIV)
# [31] = target: Env of HIV isolate TH966.8 (clade AE) (HIV)
# [32] = target: Env of HIV isolate TH976.17 (clade AE) (HIV)
# [33] = target: Env of HIV isolate X1193.c1 (clade G) (HIV)
# [34] = target: Envelope protein of SVA.MLV (clade NA)
# [35] = target: HIV Env of isolate 16055-2.3 (HIV)
# [36] = target: HIV Env of isolate 16845-2.22 (HIV)
# [37] = target: HIV Env of isolate 191821.E6.1 (HIV)
# [38] = target: HIV Env of isolate 25711-2.4 (HIV)
# [39] = target: HIV Env of isolate 286.36 (HIV)
# [40] = target: HIV Env of isolate 288.38 (HIV)
# [41] = target: HIV Env of isolate 6785.v5.c14 (HIV)
# [42] = target: HIV Env of isolate BR025.9 (HIV)
# [43] = target: HIV Env of isolate CNE19 (HIV)
# [44] = target: HIV Env of isolate CNE31 (HIV)
# [45] = target: HIV Env of isolate DU123.06 (HIV)
# [46] = target: HIV Env of isolate DU151.02 (HIV)
# [47] = target: HIV Env of isolate P1981.C5.3 (HIV)
# [48] = target: HIV Env of isolate ZM135.10a (HIV)
# [49] = target: HIV Env of isolate ZM53.12 (HIV)
# [50] = target: HIV Env of isolate ZM55.28a (HIV)
binder,measurement,setting,value
"ePGT121.18 (ePGT121.18.H1 VH and ePGT121.17.L1 VL) (antibody, V domains shown) VH: QMQLQESGPGLVKPGETLSLTCSVSGASISSSYWSWLRETPGKGLEWIGYTHHSGDTNYAPSLKSRVHLGLHPSKNQVSLSLTSVTAADTAVYYCARTLHGRRIYGVVAFNEYYTYFYWPTWGKGTQVTVSS VL: SDISVAPGETVRITCGGESIGSRAVQWYQHRPGQAPRLIIYNNQDRPPGIPERFSGSPDIDFGTTATLTISNVEAGDEATYYCHIWDSRRPTNWELGPGTTLTVL","IC50, pseudovirus neutralization",[1],36 ng/mL
same,"IC50, pseudovirus neutralization",[2],2 ng/mL
same,"IC50, pseudovirus neutralization",[3],3 ng/mL
same,"IC50, pseudovirus neutralization",[4],1 ng/mL
same,"IC50, pseudovirus neutralization",[5],0.8 ng/mL
same,"IC50, pseudovirus neutralization",[6],3 ng/mL
same,"IC50, pseudovirus neutralization",[7],4 ng/mL
same,"IC50, pseudovirus neutralization",[8],3 ng/mL
same,"IC50, pseudovirus neutralization",[9],6 ng/mL
same,"IC50, pseudovirus neutralization",[10],2 ng/mL
same,"IC50, pseudovirus neutralization",[11],76 ng/mL
same,"IC50, pseudovirus neutralization",[12],1 ng/mL
same,"IC50, pseudovirus neutralization",[13],2 ng/mL
same,"IC50, pseudovirus neutralization",[14],1 ng/mL
same,"IC50, pseudovirus neutralization",[15],> 50000 ng/mL
same,"IC50, pseudovirus neutralization",[16],0.8 ng/mL
same,"IC50, pseudovirus neutralization",[17],460 ng/mL
same,"IC50, pseudovirus neutralization",[18],2 ng/mL
same,"IC50, pseudovirus neutralization",[19],2 ng/mL
same,"IC50, pseudovirus neutralization",[20],> 50000 ng/mL
same,"IC50, pseudovirus neutralization",[21],> 50000 ng/mL
same,"IC50, pseudovirus neutralization",[22],3 ng/mL
same,"IC50, pseudovirus neutralization",[23],2 ng/mL
same,"IC50, pseudovirus neutralization",[24],1 ng/mL
same,"IC50, pseudovirus neutralization",[25],> 50000 ng/mL
same,"IC50, pseudovirus neutralization",[26],1 ng/mL
same,"IC50, pseudovirus neutralization",[27],0.8 ng/mL
same,"IC50, pseudovirus neutralization",[28],4 ng/mL
same,"IC50, pseudovirus neutralization",[29],16 ng/mL
same,"IC50, pseudovirus neutralization",[30],3 ng/mL
same,"IC50, pseudovirus neutralization",[31],> 50000 ng/mL
same,"IC50, pseudovirus neutralization",[32],> 50000 ng/mL
same,"IC50, pseudovirus neutralization",[33],2 ng/mL
same,"IC50, pseudovirus neutralization",[34],> 50000 ng/mL
same,"IC80, pseudovirus neutralization (M1)",[35],89 ng/mL
same,"IC80, pseudovirus neutralization (M2)",[35],59 ng/mL
same,"IC80, pseudovirus neutralization (M1)",[36],127 ng/mL
same,"IC80, pseudovirus neutralization (M2)",[36],105 ng/mL
same,"IC80, pseudovirus neutralization (M1)",[37],95 ng/mL
same,"IC80, pseudovirus neutralization (M2)",[37],105 ng/mL
same,"IC80, pseudovirus neutralization (M1)",[38],5 ng/mL
same,"IC80, pseudovirus neutralization (M2)",[38],6 ng/mL
same,"IC80, pseudovirus neutralization (M1)",[39],3 ng/mL
same,"IC80, pseudovirus neutralization (M2)",[39],4 ng/mL
same,"IC80, pseudovirus neutralization (M1)",[40],2 ng/mL
same,"IC80, pseudovirus neutralization (M2)",[40],2 ng/mL
same,"IC80, pseudovirus neutralization (M1)",[41],6 ng/mL
same,"IC80, pseudovirus neutralization (M2)",[41],6 ng/mL
same,"IC80, pseudovirus neutralization (M1)",[42],4 ng/mL
same,"IC80, pseudovirus neutralization (M2)",[42],4 ng/mL
same,"IC80, pseudovirus neutralization (M1)",[43],6 ng/mL
same,"IC80, pseudovirus neutralization (M2)",[43],4 ng/mL
same,"IC80, pseudovirus neutralization (M1)",[44],49 ng/mL
same,"IC80, pseudovirus neutralization (M2)",[44],78 ng/mL
same,"IC80, pseudovirus neutralization (M1)",[45],6 ng/mL
same,"IC80, pseudovirus neutralization (M2)",[45],5 ng/mL
same,"IC80, pseudovirus neutralization (M1)",[46],3 ng/mL
same,"IC80, pseudovirus neutralization (M2)",[46],3 ng/mL
same,"IC80, pseudovirus neutralization (M1)",[47],3 ng/mL
same,"IC80, pseudovirus neutralization (M2)",[47],3 ng/mL
same,"IC80, pseudovirus neutralization (M1)",[48],140 ng/mL
same,"IC80, pseudovirus neutralization (M2)",[48],188 ng/mL
same,"IC80, pseudovirus neutralization (M1)",[49],20 ng/mL
same,"IC80, pseudovirus neutralization (M2)",[49],32 ng/mL
same,"IC80, pseudovirus neutralization (M1)",[50],14 ng/mL
same,"IC80, pseudovirus neutralization (M2)",[50],14 ng/mL
"ePGT121.15.H2.L1 (antibody, V domains shown) VH: QMQLQESGPGLVKPGETLSLTCSVSGASISSSYWSWLRETPGKGLEWIGYTHHSGDTNYAPSLKSRVHLGLHPSKNQVSLSLTSVTAADTAVYYCARTLHGRRIYGVVAFNEWFTYFYWEVWGKGTQVTVSS VL: SDISVAPGETVRISCGGESIGSRAVQWYQHRAGQAPKLIIYNNQDRPPGIPERFSGSPDIDFGTTATLTITNVEAGDEATYYCHIWDSRRPTNWVFGGGTTLTVL",neutralization (Table 6 value),[43],0.000602
